Measured values: US20230322957A1 (ENGMAB SARL, published 2023)

What was measured:
Experiment in all cases: cell-based or functional assay
[1] = biological target: T1, human BCMA on the cell surface (human, UniProt Q02223 1-184)
T1 sequence (looked up): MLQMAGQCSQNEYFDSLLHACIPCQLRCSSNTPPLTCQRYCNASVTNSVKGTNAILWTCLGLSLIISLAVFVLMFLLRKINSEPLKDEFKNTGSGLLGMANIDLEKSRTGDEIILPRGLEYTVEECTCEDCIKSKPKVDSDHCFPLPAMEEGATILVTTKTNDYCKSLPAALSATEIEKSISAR

[2] = biological target: T1, human BCMA on the cell surface; remark: listed apart in the source
[3] = biological target: T1, human BCMA on the cell surface; remark: listed apart in the source
[4] = biological target: T1, human BCMA on the cell surface; remark: listed apart in the source
[5] = biological target: T1, human BCMA on the cell surface; remark: listed apart in the source
[6] = biological target: T1, human BCMA on the cell surface; remark: listed apart in the source
[7] = biological target: T1, human BCMA on the cell surface; remark: listed apart in the source

B1: 83A10-TCBcv (bispecific antibody, human IgG1, kappa, L234A L235A)
heavy 1: not shown
heavy 2: not shown
light 1: not shown
light 2: EVQLLESGGGLVQPGGSLRLSCAASGFTFSTYAMNWVRQAPGKGLEWVSRIRSKYNNYATYYADSVKGRFTISRDDSKNTLYLQMNSLRAEDTAVYYCVRHGNFGNSYVSWFAYWGQGTLVTVSSASVAAPSVFIFPPSDEQLKSGTASVVCLLNNFYPREAKVQWKVDNALQSGNSQESVTEQDSKDSTYSLSSTLTLSKADYEKHKVYACEVTHQGLSSPVTKSFNRGEC
EC50 redirected T-cell killing of RPMI-8226 cells (LDH release), Donor 2 [1]: 0.621 nM | EC50 redirected T-cell killing of RPMI-8226 cells (LDH release), Donor 3 [1]: 0.229 nM | EC50 redirected T-cell killing of RPMI-8226 cells (LDH release), Donor 4 [1]: 0.035 nM | EC50 redirected T-cell killing of RPMI-8226 cells (LDH release), Donor 5 [1]: 0.0649 nM | EC50 redirected T-cell killing of H929 cells (LDH release), Donor 1 [2]: 0.0039 nM | EC50 redirected T-cell killing of H929 cells (LDH release), Donor 3 [2]: 0.0085 nM | EC50 redirected T-cell killing of H929 cells (LDH release), Donor 4 [2]: 0.005 nM | EC50 redirected T-cell killing of H929 cells (LDH release), Donor 5 [2]: 0.0043 nM | EC50 redirected T-cell killing of H929 cells (LDH release), Donor 6 [2]: 0.0015 nM | Annexin-V positive JJN-3 cells (%) at 0.1 pM, Experiment 2 [3]: 13.1% | Annexin-V positive JJN-3 cells (%) at 1 pM, Experiment 1 [3]: 11.4% | Annexin-V positive JJN-3 cells (%) at 1 pM, Experiment 2 [3]: 14.3% | Annexin-V positive JJN-3 cells (%) at 10 pM, Experiment 1 [3]: 11.1% | Annexin-V positive JJN-3 cells (%) at 10 pM, Experiment 2 [3]: 15.9% | Annexin-V positive JJN-3 cells (%) at 100 pM, Experiment 1 [3]: 9.12% | Annexin-V positive JJN-3 cells (%) at 100 pM, Experiment 2 [3]: 16.5% | Annexin-V positive JJN-3 cells (%) at 1000 pM, Experiment 1 [3]: 10.2% | Annexin-V positive JJN-3 cells (%) at 1000 pM, Experiment 2 [3]: 17.5% | Annexin-V positive JJN-3 cells (%) at 10000 pM, Experiment 1 [3]: 16.8% | Annexin-V positive JJN-3 cells (%) at 10000 pM, Experiment 2 [3]: 22.9% | EC50 redirected T-cell killing of L363 cells (LDH release), Donor 1 [4]: 0.0168 nM | EC50 redirected T-cell killing of L363 cells (LDH release), Donor 2 [4]: 0.0478 nM | EC50 redirected T-cell killing of L363 cells (LDH release), Donor 3 [4]: 0.0284 nM | EC50 redirected T-cell killing of L363 cells (LDH release), Donor 4 [4]: 0.0126 nM | EC50 redirected T-cell killing of L363 cells (LDH release), Donor 5 [4]: 0.039 nM | Granzyme B secretion EC50, PBMC + RPMI-8226 cells (CBA) [5]: 0.34 nM | IL-10 secretion EC50, PBMC + RPMI-8226 cells (CBA) [5]: 0.3 nM | TNF-α secretion EC50, PBMC + RPMI-8226 cells (CBA) [5]: 0.52 nM | Annexin-V positive patient bone marrow myeloma plasma cells (%) at 10 pM [6]: 16.8% | Annexin-V positive patient bone marrow myeloma plasma cells (%) at 100 pM [6]: 15.7% | Annexin-V positive patient bone marrow myeloma plasma cells (%) at 1000 pM [6]: 23.1% | Annexin-V positive patient bone marrow myeloma plasma cells (%) at 10000 pM [6]: 30.9% | Annexin-V positive patient bone marrow myeloma plasma cells (%) at 30000 pM [6]: 29.3% | Lysis of JJN-3 cells (%) at 0.1 pM, Experiment 2 [7]: 22.3% | Lysis of JJN-3 cells (%) at 1 pM, Experiment 1 [7]: 24.4% | Lysis of JJN-3 cells (%) at 1 pM, Experiment 2 [7]: -1.88% | Lysis of JJN-3 cells (%) at 10 pM, Experiment 1 [7]: 41.9% | Lysis of JJN-3 cells (%) at 10 pM, Experiment 2 [7]: 39.6% | Lysis of JJN-3 cells (%) at 100 pM, Experiment 1 [7]: 18.4% | Lysis of JJN-3 cells (%) at 100 pM, Experiment 2 [7]: 20.1% | Lysis of JJN-3 cells (%) at 1000 pM, Experiment 1 [7]: 26.7% | Lysis of JJN-3 cells (%) at 1000 pM, Experiment 2 [7]: 25.3% | Lysis of JJN-3 cells (%) at 10000 pM, Experiment 1 [7]: 70.3% | Lysis of JJN-3 cells (%) at 10000 pM, Experiment 2 [7]: 51.2%
